Reference: patent US20150125454A1 (Daiichi Sankyo, published 2015)

Biological target: human FGFR2 IIIc variant protein (isoform 1: NP-000132) (human, UniProt P21802 22-821)
Test: flow cytometry (MFI) on transfected HEK293T cells, hybridoma supernatant; non-binding implied by 'selectively', values only in FIG. 1
Description: Each human FGFR expression vector constructed in Examples 1)-3-1 and 2)-1-1 was transfected to HEK293T cells by the method shown in Example 1)-5-1. The cell suspension was centrifuged to remove the supernatant. Then, these various human FGFR expression vector-transfected HEK293T cells and the pcDNA-DEST40-transfected HEK293T cells were separately suspended by the addition of the hybridoma culture supernatant containing the FR2-10, FR2-13, or FR2-14 antibody and left standing at 4° C. for 1 hour. The cells were washed twice with PBS containing 5% FBS, then suspended by the addition of Anti-Rat IgG FITC conjugate (manufactured by Sigma-Aldrich Corp.) diluted 320-fold with PBS containing 5% FBS, and left standing at 4° C. for 1 hour. The cells were washed 3 times with PBS containing 5% FBS and then resuspended in PBS containing 5% FBS and 2 μg/ml 7-aminoactinomycin D (manufactured by Molecular Probes, Inc.), followed by detection using a flow cytometer (FC500; manufactured by Beckman Coulter Inc.). The data was analyzed using Flowjo (manufactured by Tree Star Inc.). After removal of 7-aminoactinomycin D-positive dead cells by gating, the FITC fluorescence intensity of live cells was plotted to a histogram to calculate average fluorescence intensity (MFI).

human FGFR2 IIIc variant protein (isoform 1: NP-000132), sequence (P21802 22-821 limits assumed, change not shown): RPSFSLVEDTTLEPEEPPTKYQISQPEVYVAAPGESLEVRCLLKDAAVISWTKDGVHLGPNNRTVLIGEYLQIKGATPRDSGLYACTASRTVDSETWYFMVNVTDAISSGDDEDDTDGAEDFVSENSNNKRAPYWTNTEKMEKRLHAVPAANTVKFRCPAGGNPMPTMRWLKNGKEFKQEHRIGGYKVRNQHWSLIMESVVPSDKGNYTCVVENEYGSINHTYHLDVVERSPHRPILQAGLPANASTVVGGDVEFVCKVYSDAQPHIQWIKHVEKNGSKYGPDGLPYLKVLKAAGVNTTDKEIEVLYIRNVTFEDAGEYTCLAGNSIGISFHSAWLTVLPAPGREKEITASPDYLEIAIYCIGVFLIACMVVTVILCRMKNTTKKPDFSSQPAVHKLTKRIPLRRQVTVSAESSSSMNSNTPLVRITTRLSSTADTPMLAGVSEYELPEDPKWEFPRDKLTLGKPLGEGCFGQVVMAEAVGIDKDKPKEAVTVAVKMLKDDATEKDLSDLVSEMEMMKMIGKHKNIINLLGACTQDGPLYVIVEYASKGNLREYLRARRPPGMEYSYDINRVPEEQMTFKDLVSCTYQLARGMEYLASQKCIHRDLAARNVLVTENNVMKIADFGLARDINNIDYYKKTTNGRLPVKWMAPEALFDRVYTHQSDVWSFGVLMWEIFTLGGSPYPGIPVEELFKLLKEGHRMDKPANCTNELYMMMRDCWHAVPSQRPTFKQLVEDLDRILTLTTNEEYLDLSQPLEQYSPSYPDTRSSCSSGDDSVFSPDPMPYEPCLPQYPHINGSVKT

B1: rat anti-FGFR2 antibody FR2-10 (antibody, IgG2a, V domains shown)
VH: EVQLVESGGGLVQPGRSLKLSCVASGFRFNDFWMTWIRQAPGKGLEWVASITYTGDNTYYAGSVKGRITISRDNAKSTLYLQMNSLRSEDTATYYCTRDDYGGYSPYYMDAWGQGTSVTVSS
VL: DIQMTQSPSSLSAFLGDRVTITCRASQDIGNYLRWFQQKPGKSPRLMIYGATNLANGVPSRFSGSRSGSDYSLTINNLESEDMAIYYCLKHNEYPFTFGSGTKLEIKR
notes: Used as hybridoma culture supernatant in flow cytometry and as antibody purified from ascites elsewhere; also called rat FR2-10 antibody
  binding result: no binding
